Experimental data: PMC10115243 (Nature plants, 2023)

Experiments:
[1] = molecular target: Populus trichocarpa galactan synthase 1 (GalS1), residues 73-495, tag removed (Populus trichocarpa); test: SEC-MALS
[2] = molecular target: Populus trichocarpa galactan synthase 1 (GalS1), residues 73-495, tag removed (Populus trichocarpa); test: SEC-MALS + other: SAXS
[3] = molecular target: GalS1-ΔSTEM (Populus trichocarpa GalS1 lacking the stem region, residues 73-113) (Populus trichocarpa); test: SEC-MALS

| stoichiometry N [1] | stoichiometry N [2] | stoichiometry N [3] | Substance |
| --- | --- | --- | --- |
| 2 | 2 | – | Populus trichocarpa galactan synthase 1 (GalS1), residues 73-495, tag removed (enzyme) |
| – | – | 2 | GalS1-ΔSTEM (Populus trichocarpa GalS1 lacking the stem region, residues 73-113) (domain or fragment) |
